Test results reported in US20110287512.

Assays:
[1] = test system: ZFP8196 linker TNTTRPYRPPKP center linker F2-F3 TGEKP replaced by TNTTRPYRPPKP (artificial); experiment: ELONA; conditions: normalized ELISA score, pool of 16 2-bp gaps
[2] = test system: ZFP8196 linker TASCPRPFRPPKP center linker F2-F3 TGEKP replaced by TASCPRPFRPPKP (artificial); experiment: ELONA; conditions: normalized ELISA score, pool of 16 2-bp gaps
[3] = test system: ZFP8196 linker 2f center linker F2-F3 TGEKP replaced by TPNPHRRTDPSHKP (artificial); experiment: ELONA; conditions: normalized ELISA score averaged over 16 2-bp gaps
[4] = test system: ZFP8196 linker TSINRPFRRPKP center linker F2-F3 TGEKP replaced by TSINRPFRRPKP (artificial); experiment: ELONA; conditions: normalized ELISA score, pool of 16 2-bp gaps
[5] = test system: ZFP8196 linker 2e center linker F2-F3 TGEKP replaced by TPGGKSSRTDRNKP (artificial); experiment: ELONA; conditions: normalized ELISA score averaged over 16 2-bp gaps
[6] = test system: ZFP8196 linker TGSLRPYRRPKP center linker F2-F3 TGEKP replaced by TGSLRPYRRPKP (artificial); experiment: ELONA; conditions: normalized ELISA score, pool of 16 2-bp gaps
[7] = test system: ZFP8196 linker 2d center linker F2-F3 TGEKP replaced by TLAPRPYRPPKP (artificial); experiment: ELONA; conditions: normalized ELISA score averaged over 16 2-bp gaps
[8] = test system: ZFP8196 linker LRQKDGGGSERP (Kim, Pabo) center linker F2-F3 TGEKP replaced by LRQKDGGGSERP (artificial); experiment: ELONA; conditions: normalized ELISA score averaged over 16 2-bp gaps
[9] = test system: ZFP8196 linker TETTRPFRPPKP center linker F2-F3 TGEKP replaced by TETTRPFRPPKP (artificial); experiment: ELONA; conditions: normalized ELISA score, pool of 16 2-bp gaps
[10] = test system: ZFP8196 linker TGGGGSGGSQKP (flexible) center linker F2-F3 TGEKP replaced by TGGGGSGGSQKP (artificial); experiment: ELONA; conditions: normalized ELISA score averaged over 16 2-bp gaps
[11] = test system: ZFP8196 linker TGEARPYRPPKP center linker F2-F3 TGEKP replaced by TGEARPYRPPKP (artificial); experiment: ELONA; conditions: normalized ELISA score, pool of 16 2-bp gaps
[12] = test system: ZFP7263 linker TQRPQIPPKP (artificial)
[13] = test system: ZFP7263 (host, center linker TGSQKP) (artificial)
[14] = test system: ZFP7263 linker TGGGGSQKP (artificial)
[15] = test system: ZFP7263 linker TYPRPLLAKP (artificial)
[16] = test system: ZFP7263 linker TPLCQRPMKQKP (artificial)
[17] = test system: ZFP7263 linker LRQKDERP (artificial)
[18] = test system: ZFP7263 linker TPNRCPPTKP (artificial)
[19] = test system: ZFP7263 linker TGEGGKP (artificial)
[20] = test system: ZFP7263 linker TPRPPIPKP (artificial)
[21] = test system: ZFN7264 linker TSRPRPKP (artificial); experiment: cell_activity; conditions: yeast, paired with 7263 ZFN
[22] = test system: ZFN7264 linker TGLPKPKP (artificial); experiment: cell_activity; conditions: yeast, paired with 7263 ZFN
[23] = test system: ZFN7264 linker 1e center linker F2-F3 TGSQKP replaced by TVPRPTPPKP (artificial); experiment: cell_activity; conditions: normalized yeast MEL-1 score
[24] = test system: ZFN7264 linker TGGGGSQKP (artificial); experiment: cell_activity; conditions: yeast, paired with 7263 ZFN
[25] = test system: ZFN7264 (host) (artificial); experiment: cell_activity; conditions: yeast, paired with 7263 ZFN
[26] = test system: ZFP7264 linker TLPPCFRPKP center linker F2-F3 TGSQKP replaced by TLPPCFRPKP (artificial); experiment: ELONA; conditions: normalized ELISA score
[27] = test system: ZFP7264 linker TGLPKPKP center linker F2-F3 TGSQKP replaced by TGLPKPKP (artificial); experiment: ELONA; conditions: normalized ELISA score
[28] = test system: ZFP7264 linker TGEGGKP center linker F2-F3 TGSQKP replaced by TGEGGKP (artificial); experiment: ELONA; conditions: normalized ELISA score
[29] = test system: ZFP7264 linker TGGGGSQKP center linker F2-F3 TGSQKP replaced by TGGGGSQKP (artificial); experiment: ELONA; conditions: normalized ELISA score
[30] = test system: ZFP7264 linker TSRPRPKP center linker F2-F3 TGSQKP replaced by TSRPRPKP (artificial); experiment: ELONA; conditions: normalized ELISA score
[31] = test system: ZFP7264 linker TKHGTPKHREDKP center linker F2-F3 TGSQKP replaced by TKHGTPKHREDKP (artificial); experiment: ELONA; conditions: normalized ELISA score
[32] = test system: ZFP7264 linker 1e center linker F2-F3 TGSQKP replaced by TVPRPTPPKP (artificial); experiment: ELONA; conditions: normalized ELISA score
[33] = test system: ZFP7264 (host, center linker TGSQKP) (artificial); experiment: ELONA
[34] = test system: ZFP7264 linker LRQKDERP center linker F2-F3 TGSQKP replaced by LRQKDERP (artificial); experiment: ELONA; conditions: normalized ELISA score
[35] = test system: ZFP7264 linker TLPLPRPKP center linker F2-F3 TGSQKP replaced by TLPLPRPKP (artificial); experiment: ELONA; conditions: normalized ELISA score
[36] = test system: ZFP7264 linker LRQKDERP (artificial)
[37] = test system: ZFP7264 linker TKHGTPKHREDKP (artificial)
[38] = test system: ZFP7264 linker 1e (artificial)
[39] = test system: ZFP7264 linker TSRPRPKP (artificial)
[40] = test system: ZFP7264 linker TLPPCFRPKP (artificial)
[41] = test system: ZFP7264 (host, center linker TGSQKP) (artificial)
[42] = test system: ZFP7264 linker TGEGGKP (artificial)
[43] = test system: ZFP7264 linker TLPLPRPKP (artificial)
[44] = test system: ZFP7264 linker TGGGGSQKP (artificial)
[45] = test system: ZFP7264 linker TGLPKPKP (artificial)

## TTAGATAAACTGNNCAAAAGGCTATC (double strand) [8196 targets 2-bp gap, all 16 compositions]
[1]
  binding signal: 0.41
[2]
  binding signal: 0.37
[3]
  binding signal: 0.219
[4]
  binding signal: 0.57
[5]
  binding signal: 0.1
[6]
  binding signal: 0.31
[7]
  binding signal: 0.127
[8]
  binding signal: 0.003
[9]
  binding signal: 0.57
[10]
  binding signal: 0.01
[11]
  binding signal: 0.61

## TTAGCCACTCTGATTGGAAGTGTATC (double strand) [7263 target gap AT]
[12]
  binding signal (normalized ELISA): 0.02
[13]
  binding signal (normalized ELISA): 0.01
[14]
  binding signal (normalized ELISA): 0.01
[15]
  binding signal (normalized ELISA): 0.01
[16]
  binding signal (normalized ELISA): 0.05
[17]
  binding signal (normalized ELISA): 0.01
[18]
  binding signal (normalized ELISA): 0.02
[19]
  binding signal (normalized ELISA): 0.01
[20]
  binding signal (normalized ELISA): 0.01

## AAAGCGTGCTCCG (double strand) [7264 yeast half-site gap T]
[21]
  activity (normalized MEL-1): 3.38
[22]
  activity (normalized MEL-1): 0.79
[23]
  activity: 2.34
[24]
  activity (normalized MEL-1): 0.34
[25]
  activity (normalized MEL-1): 0.06

## TTAGTTAAAGCGGCTCCGAATATC (double strand) [7264 target 0-bp gap]
[26]
  binding signal: 0.36
[27]
  binding signal: 0.14
[28]
  binding signal: 1.39
[29]
  binding signal: 0.46
[30]
  binding signal: 0.18
[31]
  binding signal: 0.01
[32]
  binding signal: 0.16
[33]; ELISA normalized to host on 0-bp gap target (reference)
  binding signal: 1
[34]
  binding signal: 0.26
[35]
  binding signal: 0.25

## TTAGTTAAAGCGTGCTCCGAATATC (double strand) [7264 target gap T]
[26]
  binding signal: 2.72
[27]
  binding signal: 0.86
[28]
  binding signal: 0.08
[29]
  binding signal: 0.17
[30]
  binding signal: 2.07
[31]
  binding signal: 0.01
[32]
  binding signal: 2.55
[33]; normalized ELISA score
  binding signal: 0
[34]
  binding signal: 0.1
[35]
  binding signal: 1.36

## TTAGTTAAAGCGTAGCTCCGAATATC (double strand) [7264 target gap TA]
[36]
  binding signal (normalized ELISA): 0.02
[37]
  binding signal (normalized ELISA): 0
[38]
  binding signal (normalized ELISA): 0.05
[39]
  binding signal (normalized ELISA): 0.03
[40]
  binding signal (normalized ELISA): 0.06
[41]
  binding signal (normalized ELISA): 0
[42]
  binding signal (normalized ELISA): 0.02
[43]
  binding signal (normalized ELISA): 0.03
[44]
  binding signal (normalized ELISA): 0.03
[45]
  binding signal (normalized ELISA): 0.02
